Assay results taken from PMC3642142.

Molecular target: IAEDANS-labeled K75C mutant calmodulin (UniProt P0DP23)
Assay: other fluorescence titration; IAEDANS emission (excitation 340 nm, emission 475 nm) of about 1 nM I-CaM; LSEL15 titrated; 10 mM MOPS pH 7.4, 100 mM NaCl, 0.3 mM CaCl2, 0.1 mg/ml BSA

Kd: 3.8 nM
Substance: Peptide LSEL15 (L-selectin residues Ala311-Lys325)
